The record followed here is US20260234738A1 (Regeneron, published 2026).

For assay [1], the target named is Bt-SARS-CoV-2 Spike Protein (RBD) (R319-F541).mFc (SARS-CoV-2). The experiment in a line: Luminex beads, supernatant.
In assay [2] the target is SARS-CoV-2 Spike Protein (RBD) (R319-F541).mFc (SARS-CoV-2). Kind of assay: Luminex beads, supernatant.
The target of assay [3] is SARS-CoV-2 Spike Protein (RBD) (R319-F541).hFc (SARS-CoV-2). The experiment in a line: Luminex beads, supernatant.
The target in assay [4] is SARS-COV-2 spike protein receptor binding domain (amino acids Arg319 to Phe541) expressed with the F (SARS-CoV-2).
The target in assay [5] is SARS-COV-2 RBD-hFc (SARS-CoV-2).

Some results are limits rather than exact numbers.

B1: mAb10965 (antibody, V domains shown)
VH: EVQLVESGGGLIQPGGSLRLSCAASVFTVSYNYMSWVRQAPGKGLEWVSVIYSGGSTYYADSVKGRFTISRDNSKNTLYLQMNSLRAEDTAVYYCARALPGWGGSFEYFDYWGQGTLVTVSS
VL: not shown
Consider B1, for which the MFI was 13700 MFI in assay [1], 27100 MFI in assay [2] and 29600 MFI in assay [3].

B2: mAb10998 (antibody, V domains shown)
VH: EVQLVESGGGLVHPGGSLRLSCAASGLTVSSNYMSWVRQAPGKGLEWVSVIYSGGSTYYADSVKGRFTISRHNSKNTLFLQMNSLRAEDTAVYYCARDRPITGTTLDVWGQGTTVTVSS
VL: DIQMTQSPSSLFASVGDRVTITCRASQSISSYLNWYQQKPGKAPKLLIYAASSLQSGVPSRFSGSGSGTDFTLTISSLQPEDFAFYYCQQTYSTPPITFGQGTRLEIK
As to B2, in assay [4], binding was put at a Kd of 1.58 nM; the off-rate constant (koff) (in general, the first-order rate constant of dissociation) turned out to be 0.000521 s⁻¹; the kon (usually a measure of how fast the partners come together) amounted to 330000 M⁻¹ s⁻¹; the t½ (usually the time in which the quantity being followed falls by half) is 22.2 min.

B3: mAb11004 (antibody, V domains shown)
VH: QVQLVESGGGVVQPGRSLRLSCVASGFTFSIYGMDWVRQAPGKGLEWVAVISYDGSNKYYADSVKGRFTISRDNSKNTLYLQMNSLRPEDTAVYYCAKDREAAADAFDIWGQGTMVTVSS
VL: DIQMTQSPSSVSASVGDRVTITCRASQGISSWLAWYQQKPGKAPKLLIYAASSLHSGVPSRFSGSGSGTDFTLTISSLQPEDFATYYCQQANSFRLTFGGGTKVEIK
As for B3, in assay [4], binding was characterised by a dissociation constant (Kd) of 0.191 nM, the koff was 6.63e-05 s⁻¹, the kon turned out to be 346000 M⁻¹ s⁻¹ and the t½ was 174 min.

B4: mAb10984 (antibody, V domains shown)
VH: EVQLVESGGGLVQPGGSLRLSCAASGLTVNRNYMSWVRQAPGKGLEWVSLIYSGGSTYYADSVKGRFTISRDNSKNTLYLQMNSLRLEDTAVYYCARGELGIPYGMDVWGQGTTVTVSS
VL: QSVLTQPPSVSAAPGQKVTISCSGSSSNIGNNYVSWYQQLPGTAPKLLIYDNNKRPSGIPDRFSGSKSGTSATLGITGLQTGDEADYYCGTWDSSLSAGVFGGGTKLTVLG
Consider B4, for which the MFI is 17100 MFI in assay [1], 28400 MFI in assay [2] and 28400 MFI in assay [3].

B5: mAb10966 (antibody, V domains shown)
VH: EVQLVESGGGLVQPGGSLRLSCAASGLTVSSNYMSWVRQAPGKGLEWVSVIYSGGSTFYADSVKGRFTISRDNSKNTLYLQMNSLRPEDTAVYYCAREGRIAATGYGMDVWGQGTTVTVSS
VL: not shown
Regarding B5, the MFI in assay [1] came out at 17900 MFI; in assay [2], 30400 MFI; in assay [3] it was 30800 MFI.

B6: mAb10985 (antibody, V domains shown)
VH: EVQLVESGGGLVQPGRSLRLSCAASGFTFDDYAMHWVRQAPGKGLEWVSGISWNRGSIGYADSVKGRFTISRDNAKNSLYLQMSSLRAEDTALYYCAKDGERWDSVVVPSARNGMDVWGQGTTVTVSS
VL: QSVLTQPPSVSGAPGQRVTISCTGSSSNIGAGYDVHWYQQLPGTAPKLLIYGNSNRPSGVPDRFSGSKSGTSASLAITGLQAEDEADYYCQSYDSSLSGSYVFGTGTKVTVLG
For the molecule B6, the MFI in assay [1] stood at 15500 MFI; in assay [2], 29400 MFI; in assay [3], 31100 MFI.

B7: mAb11006 (antibody, V domains shown)
VH: EVQLVESGGGLVQPGGSLRLSCAASGFIVSRNYMSWVRQAPGKGLEWVSVIYSGGSTFYADSVKGRFTISRHNSKNTLYLQMNSLKAEDTAVYYCARELRGYFDYWGQGTLVTVSS
VL: DIQLTQSPSFLSASVGDRVTITCWASQGISSYLAWYQQKPGKAPKLLIYAASTLQSGVPSRFSGSGSGTEFTLTISSLQPEDFATYYCQLLNSYPYTFGQGTKLEIK
For the molecule B7, in assay [4], the Kd (commonly the constant that tells how readily two partners part at equilibrium) was at most 0.0532 nM and the t½ was at least 1160 min.

B8: mAb11008 (antibody, V domains shown)
VH: EVQLVESGGGLVQPGGSLRLSCAASGFTVSSNYMTWVRQAPGKGLEWVSVIYSGGSTFYADSVKGRFTISRHNSENTLYLQMNSLRAEDTAVYYCARDLAAAGTDYWGQGALVTVSS
VL: DIQLTQSPSFLSASVGDRVTITCWASQGISSYLAWYQQKPGKAPKLLIYAASTLQSGVPSRFSGSGSGTEFTLTISSLQPDDFATYYCQHLNSYLYTFGQGTKLEIK
Consider B8, for which, in assay [4], the affinity, expressed as Kd, was 0.715 nM; the koff is 0.000115 s⁻¹; the kon is 161000 M⁻¹ s⁻¹; the t½ stood at 100 min.

B9: mAb11010 (antibody, V domains shown)
VH: QVQLVESGGGVVQPGRSLRLSCAASGFTFSSYGMHWVRQAPGKGLEWVAVISYDGSYKYYADSVKGRFTISRDNSKNTLYLQMNSLRAEDTAVYYCAIDGGTVTTIFDYWGQGTLVTVSS
VL: not shown
In assay [4], B9 registered an equilibrium dissociation constant (Kd) of at most 0.0236 nM and a t½ of at least 1160 min.

B10: mAb10978 (antibody)
heavy chain: QVQLVESGGGVVQPGRSLRLSCAASGFTFSSYAMHWVRQAPGKGLEWVAVISYDGSNKYYADSVKGRFTISRDNSKNTLYLQMNSLRAEDTAVYYCARDGRTITMVRGVIDDAFDIWGQGTMVTVSSASTKGPSVFPLAPCSRSTSESTAALGCLVKDYFPEPVTVSWNSGALTSGVHTFPAVLQSSGLYSLSSVVTVPSSSLGTKTYTCNVDHKPSNTKVDKRVESKYGPPCPPCPAPGGGGPSVFLFPPKPKDTLMISRTPEVTCVVVDVSQEDPEVQFNWYVDGVEVHNAKTKPREEQFNSTYRVVSVLTVLHQDWLNGKEYKCKVSNKGLPSSIEKTISKAKGQPREPQVYTLPPSQEEMTKNQVSLTCLVKGFYPSDIAVEWESNGQPENNYKTTPPVLDSDGSFFLYSRLTVDKSRWQEGNVFSCSVMHEALHNHYTQKSLSLSLGK
light chain: not shown
B10: the “IC50 (read off the curve)” value in assay [5] is about 100 pM.

B11: mAb10971 (antibody, V domains shown)
VH: EVQLVESGGGLIQPGGSLRLSCAASGVTVSSNYMSWVRQAPGKGLEWVSVIYSGGSTFYSDSVKGRFSISRDNSKNTLYLQMNSLRAEDTAVYYCARDLYYYGMDVWGQGTTVTVSS
VL: DIQLTQSPSFLSASVGDRVTITCRASQGISTYLAWYQQKPGKAPKLLIYAASTLQSGVPSRFSGSGSGTEFTLTISSLQPEDFATYYCQQLDSYPGLTFGGGTKVEIKR
With B11, the MFI was 16700 MFI in assay [1], 28700 MFI in assay [2] and 30000 MFI in assay [3].

B12: mAb10956 (antibody, V domains shown)
VH: EVQLVESGGGLVQPGGSLRLSCAASGLTVSSNYMSWVRQAPGKGLEWVSVIYSGGSTFYADSVKGRFTISRDNSKNTLYLQMNSLRAEDTAVYYCARDLIKYGMDVWGQGTTVTVSS
VL: not shown
With B12, the MFI in assay [1] was 12900 MFI; in assay [2], 28300 MFI; in assay [3] it was 30200 MFI.

B13: mAb10957 (antibody, V domains shown)
VH: EVQLVESGGGLVQPGGSLRLSCAASGVTVSSNYMSWVRQAPGKGLEWVSVIYSGGSTFYADSVKGRFTISRDNSKNTLFLQMNSLRIEDTAVYYCARDLGPYGMDVWGQGTTVTVSS
VL: DIQLTQSPSFLSASVGDRVTITCRASQGISSYLAWYQQKPGKAPKLLIYAASTLQSGVPSRFSGSGSGTQFILTISSLQPEDFATYYCQQLNSYPGFTFGPGTKVDIKR
As for B13, the MFI was found to be 10600 MFI in assay [1], 18700 MFI in assay [2] and 22600 MFI in assay [3].

B14: mAb11002 (antibody, V domains shown)
VH: EVQLVESGGGLVQPGGSLRLSCAASGFTVSSNYMSWVRQAPGKGLEWVSVIYSGGSTFYADSVKGRFTISRHNSKNTLYLQMNSLRAEDTAVYYCAREGYGMDVWGQGTTVTVSS
VL: not shown
Regarding B14, in assay [4], binding was put at a Kd of 16.7 nM and the t½ was found to be 2.6 min.

B15: mAb10989 (antibody, V domains shown)
VH: QVQLVQSGAEVKKPGASVKVSCKASGYIFTGYYMHWVRQAPGQGLEWMGWINPNSGGANYAQKFQGRVTLTRDTSITTVYMELSRLRFDDTAVYYCARGSRYDWNQNNWFDPWGQGTLVTVSS
VL: QSALTQPASVSGSPGQSITISCTGTSSDVGTYNYVSWYQQHPGKAPKLMIFDVSNRPSGVSDRFSGSKSGNTASLTISGLQAEDEADYYCSSFTTSSTVVFGGGTKLTVLG
Consider B15, for which the values for the MFI in assay [1], in assay [2] and in assay [3] were 11200 MFI, 19600 MFI and 22400 MFI, respectively.

B16: mAb10967 (antibody, V domains shown)
VH: EVQLVESGGGLVQPGGSLRLSCAASGFTVSSNYMSWVRQAPGKGLEWVSVIYPGGSTFYADSVKGRFTISRDNSKNTLYLQMNSLRAEDTAVYYCARDQRDFAWGQGTLVTVSS
VL: DIQMTQSPSSLSASVGDRVTITCQASQDISNYLNWYQQKPGKAPKLLIYDASNLETGVPSRFSGSGSGTDFTFTISGLQPEDIATYYCQQYDNLPPTFGQGTRLEIKR
B16: the MFI in assay [1] was 16800 MFI; in assay [2], 29600 MFI; in assay [3], 28700 MFI.

B17: mAb10954 (antibody, V domains shown)
VH: EVQLVESGGGLVQPGGSLRLSCAASGITVSSNYMSWVRQAPGKGLEWVSLIYSGGSTYYADSVKGRFTISRDNSKNTLYLQMNSLRVEDTAVYYCARDHGMAAAGYNYWGQGTLVTVSS
VL: DIQMTQSPSSLSASVGDRVTITCQASQDINKYLNWYQQKPGKAPKLLIYDASNLETGVPSRFSGSGSGTDFTFTINSLQPEDFATYFCQQYDNLPPAFGQGTKVEIKR
For B17, the MFI in assay [1] turned out to be 18400 MFI; in assay [2], 31300 MFI; in assay [3] it was 31800 MFI.

B18: mAb10955 (antibody, V domains shown)
VH: EVQLVESGGGLVQPGGSLRVSCAASGFTVSRNYMSWVRQAPGKGLEWVSVIYSGGSTFYADSVKGRFTISRDNSKNTLYLQMNSLRAEDTAIYYCARYIPRFDPWGQGTLVTVSS
VL: DIQMTQSPSSLSASVGDRVTITCQASQDISNYLNWFQQKPGRAPKLLIYDASNLETGVPSRFSGSGSGTDFTFTISSLQPEDIATYYCQQYDNLPITFGQGTRLEIKR
On to B18, for which the MFI worked out at 16800 MFI in assay [1], 30800 MFI in assay [2] and 31200 MFI in assay [3].

B19: mAb10964 (antibody, V domains shown)
VH: QVQLQESGPGLVKPSETLSLTCTVSGGSINNYYWIWIRQPPGKGLEWIGYIYHSGSTNYNPSLKSRVTISVDTSKNQFSLKVSSVTAADTAVYYCANMVRGVYEDDYWGQGTLVTVSS
VL: DIQMTQSPSSLSASVGDRVTITCRASQSISNYLNWYQQKPGKAPKLLIFAASSLRSGVPSRFSGSGSGTDFTLTISSLHPEDFATYYCQQNYNTPLTFGPGTKVDIKR
With B19, the MFI in assay [1] turned out to be 19200 MFI; in assay [2], 32400 MFI; in assay [3], 33100 MFI.
